Test results reported in the DeepSol protein solubility set.

Assay: soluble on expression in E. coli; label from the status in PepcDB or PDB records

Row | Sequence | soluble on expression in E. coli
1 | MAHHHHHHMSIAASSARKDGPHHPSSGLTGKETLQDARKMEYRASTLEAGGNDMECLQLMETALQIRCKEYGTGSSSPELLKEACDAAERVVMKCNVLGVKLFKEGKYDVATPLFGYAMEMTGEGSFPLRKDDERRRRLRGVTLNNHGCMERHRGHFSTALDYMQQSMQCTGQQSPVAFLNISAVQVQLRLCEEAAHSAVCAIQSLGPNPEDPSLLAVAHHNLAMALELIDPPRAHEEYRLALGLAQNTISRRSEVTRTIESNMQRFVMVLHECRPGNSALTGTNSPRSSCGHTLFVSPRSCSRERSPSGRDAASRTHRVDIFPHPFAVSAKETVAKRSISRPARADAGHPPKRLTSLSPMN | not soluble
2 | MFSAGHKIKGTVVLMPKNELEVNPDGSAVDNLNAFLGRSVSLQLISATKADAHGKGKVGKDTFLEGINTSLPTLGAGESAFNIHFEWDGSMGIPGAFYIKNYMQVEFFLKSLTLEAISNQGTIRFVCNSWVYNTKLYKSVRIFFANHTYVPSETPAPLVSYREEELKSLRGNGTGERKEYDRIYDYDVYNDLGNPDKSEKLARPVLGGSSTFPYPRRGRTGRGPTVTDPNTEKQGEVFYVPRDENLGHLKSKDALEIGTKSLSQIVQPAFESAFDLKSTPIEFHSFQDVHDLYEGGIKLPRDVISTIIPLPVIKELYRTDGQHILKFPQPHVVQVSQSAWMTDEEFAREMIAGVNPCVIRGLEEFPPKSNLDPAIYGDQSSKITADSLDLDGYTMDEALGSRRLFMLDYHDIFMPYVRQINQLNSAKTYATRTILFLREDGTLKPVAIELSLPHSAGDLSAAVSQVVLPAKEGVESTIWLLAKAYVIVNDSCYHQLMSHWLNTHAAMEPFVIATHRHLSVLHPIYKLLTPHYRNNMNINALARQSLINANGIIETTFLPSKYSVEMSSAVYKNWVFTDQALPADLIKRGVAIKDPSTPHGVRLLIEDYPYAADGLEIWAAIKTWVQEYVPLYYARDDDVKNDSELQHWWKEAVEKGHGDLKDKPWWPKLQTLEDLVEVCLIIIWIASALHAAVNFGEYPYGGLIMNRPTASRRLLPEKGTPEYEEMINNHEKAYLRTITSKLPTLISLSVIEILSTHASDEVYLGQRDNPHWTSDSKALQAFQKFGNKLKEIEEKLVRRNNDPSLQGNRLGPVQLPYTLLYPSSEEGLTFRGIPNSISI | soluble
3 | MSKYLHSEKAYLDLINAVKDKFNYKKSVVPYIIYFLLKTGMRYGELIALTWEDIDFDKGIFKTYRRFNSETSQFVPPKNKTSIRIVPVDNECLEILKNLKIEQNQSNKELGLQNTNNMVFQHFGYPNSVPSTNGTNKVLRGIVQELNIEPIITTKGARHTYGSFLWHRGYDLGIIAKILGHKDISMLIEVYGHTLEEKIQEEYNEIKQLWLEHHHHHH | soluble
4 | MAGVKAYELRTKSKEQLASQLVDLKKELAELKVQKLSRPSLPKIKTVRKSIACVLTVINEQQREAVRQLYKGKKYQPKDLRAKKTRALRRALTKFEASQVTEKQRKKQIAFPQRKYAIKA | soluble
5 | MGSDKIHHHHHHMNNLDIKTLGQVFTPKKIVDFMLTLKHNHGSVLEPSAGDGSFLKRLKKAVRIEIDPKICPKNALCMDFFDYPLENQFDTIIGNPPYVKHKDIAPSTKEKLHYSLFDERSNLYLFFIEKAIKHLKPKGELIFITPRDFLKSTSSVKLNEWIYKEGTITHFFELGDQKVFPNAMPNCVIFRFCKGNFSRITNDGLQFLCKKGILYFLNQSYTQKLSEVFKVKVGAVSGCDKIFKNEKYGNLEFVTSITKRTNALEKMVFVNEPNDYLLQHKDSLMQRKIKKFNENNWFEWGRMHHISPKKRIYVNAKTHQKNPFFIHQCPNYDGSILALFPYNQNLDLQNLCDKLNAINWQELGFVCGGRFLFSQRSLENALLPKDFLNLG | not soluble
6 | MGSDKIHHHHHHMHFLEKYRFLVIGHRGLPSLCLENTVESFNATFNAGMPAVELDVQYTADGVPVVFHDFDLNRLAGRNSRIGDLKWDDLSKIRLASGSTIPRLSDVLSAFENFNFFIEIKIEKFDNAERKLTDDVARMVIDRSMNDNVVMISFNASAMRYVRDHYDGIITGLDFESPDEADDAVNNNVALPYYAIIDEVFDKIKERPVIPWTVDSYSTAVRLKEMGCRGIITNTGDRFISLIE | not soluble
7 | SANSGEGKVVCVTGASGYIASWLVKFLLSRGYTVKASVRDPSDPKKTQHLVSLEGAKERLHLFKADLLEQGSFDSAIDGCHGVFHTASPFFNDAKDPQAELIDPAVKGTLNVLNSCAKASSVKRVVVTSSMAAVGYNGKPRTPDVTVDETWFSDPELCEASKMWYVLSKTLAEDAAWKLAKEKGLDIVTINPAMVIGPLLQPTLNTSAAAILNLINGAKTFPNLSFGWVNVKDVANAHIQAFEVPSANGRYCLVERVVHHSEIVNILRELYPNLPLPERCVDENPYVPTYQVSKDKTRSLGIDYIPLKVSIKETVESLKEKGFAQF | soluble
8 | MPFAIGQRWLSESENALGLGVITALDQRTVTIYFPAADETRIYAMAQAPLSRIVFSKGETLSHQAGWQGEILDVQNMNGLLFYLVKNPQDEDVIVQERDISPIISFSQAKDRLFSAQIDRSTHFALRY | not soluble
9 | MPLKPGANPYKILHLEKGCTDKEIQKAYRAQCLKWHPDKNLDNKEEAERRFIEAKEAFDFLYDKEKREEYDNREERIRMAQEHHSKRMAEADGKRKKLIEDLEKREKEFSNGGKRSADGSTPMTAAQQAKKKKTDQRNFKEEIEAIRRQLEKEVNEEVKQKATLMKTEREKHQKSQEKLTPRLLLKWKTSEGLDYSEDDIRKLFSTFGIISHISSAIEKKDRRKRILEFESGANAWGAELETGNAPMPEITCEWLQPPVETVKKASDEPVKSTNTGANNLEHMSLDDLEAQIMGGF | not soluble
10 | MGSDKIHHHHHHVTRVAVVGDSLSAYAVAAVLTKLGYNCDLLCYPTKSNFYGPSLVLNDVSETLLSELFPDVNLGVDSQRLTHRWVCWGTQPVQIEQPALAIRSNSLLELLRNSKVMQHTRMIDASQLTAQQISQKYAWTVYTKHKQRGMPTLGEPCLQNAARSLLPRSRSVPQGSGTPTAGVAIALSESSQSLIGGQRVIVTAEVQDTPKSAYTCYMESLAEGWLFYAPVNGSGAMVQACLPITPANPRRALLECLYKSTTISTFVNDLQKVNCFFSAPYLEWPLCGLGWLMVGEPAIKIDPVSGEGTPFALRSAILAGAVIDAILSDRIPDISALNHYQTRLTHSFISHLRGCIQFYREVFSTNLAWQAEINQMIDIAETLSTQLEQQAVNVLNYRLIDFELHIG | not soluble
11 | IKDWTWKMGGNISYNKNKVVTLPDNGQPKNRIGGQQIYTGRKVLDEAGNQVDEVIFVGGKQEGQEPGILVGYKAEGLYKDWKDIPGDLVVKTGNYQGKYQYGPKAYAALSDAEKAKALQIEPGDVKWKDINNDGTIDAFDQIVIGNTTPHWFGGFNTTLTWKGLTLYGRFDFALDYWIYDNTTPWFLGCMQGGYNTTTDVFNTWSEENPNAKYPRYVWADQLGTANYYRTSTMFAYKGNYLAIREISLSYSLPQNIARKFYCQKLDVSVTGQNLGYITSANVATPEVSSAGSGYALPRTLLFGINVTF | not soluble
12 | MKYKAVLVDFGNTLVGFKPVFYEKVYQVLKDNGYDLDLRKVFRAYAKAMGMINYPDEDGLEHVDPKDFLYILGIYPSERLVKELKEADIRDGEAFLYDDTLEFLEGLKSNGYKLALVSNASPRVKTLLEKFDLKKYFDALALSYEIKAVKPNPKIFGFALAKVGYPAVHVGDIYELDYIGAKRSYVDPILLDRYDFYPDVRDRVKNLREALQKIEEMNKE | soluble
13 | SAEASSANLGSGCEEKRHEGSSSESVPPGTTISRVKLLDTMVDTFLQKLVAAGSYQRFTDCYKCFYQLQPAMTQRIYDKFIAQLQTSIREEISDIKEEGNLEAVLNALDKIVEEGKVRKEPAWCEAQRCRVQQRCSLCVQAGGQRGSEETQALPVSMAGSPSPLPGSPGAQEGGV | soluble
14 | MGSDKIHHHHHHMYKMTDNELTQMGAVITTREIQQEPELWLETFKIYQEKKQAIDAFLGKIESEFNEPVRVVFTGAGSSAYVGDTAMPYLTENGDRNHFRFEAIDTTKIVSTPKQYLEKDTPTILVSFARSGNSPESVATVDIAEKYVKHLYQITITCAPEGKLALHAQEDDKNLVLMQPARSNDKGFAMTGSFSCMLLTTLLVFDAQHSDEQKETYVNAISKMGHEVIDRVDDIQKLVDTDFERIVYLGSGALGGLTREAQLKVLELTAGQKVTVFDTSMGFRHGPKSFVNSKTLLFDFVSNNAYTRQYDVDILEEVAGDEIAPVVMGIGVQSAHNFTGSNFNFANGDDSIPDGYMAFPDVMFAQTISLLSSIKVKNTPDTPSATGTVNRVVKGVTIHDFEG | not soluble
